Results published in US20170000857A1.

Molecular target: ALMS1 (Alstrom syndrome protein 1) (human) (UniProt Q8TCU4)
Assay: cell-based or functional assay

Chain of UniProt Q8TCU4 (Q8TCU4 other isoform, or with tags, fused parts or gaps limits assumed): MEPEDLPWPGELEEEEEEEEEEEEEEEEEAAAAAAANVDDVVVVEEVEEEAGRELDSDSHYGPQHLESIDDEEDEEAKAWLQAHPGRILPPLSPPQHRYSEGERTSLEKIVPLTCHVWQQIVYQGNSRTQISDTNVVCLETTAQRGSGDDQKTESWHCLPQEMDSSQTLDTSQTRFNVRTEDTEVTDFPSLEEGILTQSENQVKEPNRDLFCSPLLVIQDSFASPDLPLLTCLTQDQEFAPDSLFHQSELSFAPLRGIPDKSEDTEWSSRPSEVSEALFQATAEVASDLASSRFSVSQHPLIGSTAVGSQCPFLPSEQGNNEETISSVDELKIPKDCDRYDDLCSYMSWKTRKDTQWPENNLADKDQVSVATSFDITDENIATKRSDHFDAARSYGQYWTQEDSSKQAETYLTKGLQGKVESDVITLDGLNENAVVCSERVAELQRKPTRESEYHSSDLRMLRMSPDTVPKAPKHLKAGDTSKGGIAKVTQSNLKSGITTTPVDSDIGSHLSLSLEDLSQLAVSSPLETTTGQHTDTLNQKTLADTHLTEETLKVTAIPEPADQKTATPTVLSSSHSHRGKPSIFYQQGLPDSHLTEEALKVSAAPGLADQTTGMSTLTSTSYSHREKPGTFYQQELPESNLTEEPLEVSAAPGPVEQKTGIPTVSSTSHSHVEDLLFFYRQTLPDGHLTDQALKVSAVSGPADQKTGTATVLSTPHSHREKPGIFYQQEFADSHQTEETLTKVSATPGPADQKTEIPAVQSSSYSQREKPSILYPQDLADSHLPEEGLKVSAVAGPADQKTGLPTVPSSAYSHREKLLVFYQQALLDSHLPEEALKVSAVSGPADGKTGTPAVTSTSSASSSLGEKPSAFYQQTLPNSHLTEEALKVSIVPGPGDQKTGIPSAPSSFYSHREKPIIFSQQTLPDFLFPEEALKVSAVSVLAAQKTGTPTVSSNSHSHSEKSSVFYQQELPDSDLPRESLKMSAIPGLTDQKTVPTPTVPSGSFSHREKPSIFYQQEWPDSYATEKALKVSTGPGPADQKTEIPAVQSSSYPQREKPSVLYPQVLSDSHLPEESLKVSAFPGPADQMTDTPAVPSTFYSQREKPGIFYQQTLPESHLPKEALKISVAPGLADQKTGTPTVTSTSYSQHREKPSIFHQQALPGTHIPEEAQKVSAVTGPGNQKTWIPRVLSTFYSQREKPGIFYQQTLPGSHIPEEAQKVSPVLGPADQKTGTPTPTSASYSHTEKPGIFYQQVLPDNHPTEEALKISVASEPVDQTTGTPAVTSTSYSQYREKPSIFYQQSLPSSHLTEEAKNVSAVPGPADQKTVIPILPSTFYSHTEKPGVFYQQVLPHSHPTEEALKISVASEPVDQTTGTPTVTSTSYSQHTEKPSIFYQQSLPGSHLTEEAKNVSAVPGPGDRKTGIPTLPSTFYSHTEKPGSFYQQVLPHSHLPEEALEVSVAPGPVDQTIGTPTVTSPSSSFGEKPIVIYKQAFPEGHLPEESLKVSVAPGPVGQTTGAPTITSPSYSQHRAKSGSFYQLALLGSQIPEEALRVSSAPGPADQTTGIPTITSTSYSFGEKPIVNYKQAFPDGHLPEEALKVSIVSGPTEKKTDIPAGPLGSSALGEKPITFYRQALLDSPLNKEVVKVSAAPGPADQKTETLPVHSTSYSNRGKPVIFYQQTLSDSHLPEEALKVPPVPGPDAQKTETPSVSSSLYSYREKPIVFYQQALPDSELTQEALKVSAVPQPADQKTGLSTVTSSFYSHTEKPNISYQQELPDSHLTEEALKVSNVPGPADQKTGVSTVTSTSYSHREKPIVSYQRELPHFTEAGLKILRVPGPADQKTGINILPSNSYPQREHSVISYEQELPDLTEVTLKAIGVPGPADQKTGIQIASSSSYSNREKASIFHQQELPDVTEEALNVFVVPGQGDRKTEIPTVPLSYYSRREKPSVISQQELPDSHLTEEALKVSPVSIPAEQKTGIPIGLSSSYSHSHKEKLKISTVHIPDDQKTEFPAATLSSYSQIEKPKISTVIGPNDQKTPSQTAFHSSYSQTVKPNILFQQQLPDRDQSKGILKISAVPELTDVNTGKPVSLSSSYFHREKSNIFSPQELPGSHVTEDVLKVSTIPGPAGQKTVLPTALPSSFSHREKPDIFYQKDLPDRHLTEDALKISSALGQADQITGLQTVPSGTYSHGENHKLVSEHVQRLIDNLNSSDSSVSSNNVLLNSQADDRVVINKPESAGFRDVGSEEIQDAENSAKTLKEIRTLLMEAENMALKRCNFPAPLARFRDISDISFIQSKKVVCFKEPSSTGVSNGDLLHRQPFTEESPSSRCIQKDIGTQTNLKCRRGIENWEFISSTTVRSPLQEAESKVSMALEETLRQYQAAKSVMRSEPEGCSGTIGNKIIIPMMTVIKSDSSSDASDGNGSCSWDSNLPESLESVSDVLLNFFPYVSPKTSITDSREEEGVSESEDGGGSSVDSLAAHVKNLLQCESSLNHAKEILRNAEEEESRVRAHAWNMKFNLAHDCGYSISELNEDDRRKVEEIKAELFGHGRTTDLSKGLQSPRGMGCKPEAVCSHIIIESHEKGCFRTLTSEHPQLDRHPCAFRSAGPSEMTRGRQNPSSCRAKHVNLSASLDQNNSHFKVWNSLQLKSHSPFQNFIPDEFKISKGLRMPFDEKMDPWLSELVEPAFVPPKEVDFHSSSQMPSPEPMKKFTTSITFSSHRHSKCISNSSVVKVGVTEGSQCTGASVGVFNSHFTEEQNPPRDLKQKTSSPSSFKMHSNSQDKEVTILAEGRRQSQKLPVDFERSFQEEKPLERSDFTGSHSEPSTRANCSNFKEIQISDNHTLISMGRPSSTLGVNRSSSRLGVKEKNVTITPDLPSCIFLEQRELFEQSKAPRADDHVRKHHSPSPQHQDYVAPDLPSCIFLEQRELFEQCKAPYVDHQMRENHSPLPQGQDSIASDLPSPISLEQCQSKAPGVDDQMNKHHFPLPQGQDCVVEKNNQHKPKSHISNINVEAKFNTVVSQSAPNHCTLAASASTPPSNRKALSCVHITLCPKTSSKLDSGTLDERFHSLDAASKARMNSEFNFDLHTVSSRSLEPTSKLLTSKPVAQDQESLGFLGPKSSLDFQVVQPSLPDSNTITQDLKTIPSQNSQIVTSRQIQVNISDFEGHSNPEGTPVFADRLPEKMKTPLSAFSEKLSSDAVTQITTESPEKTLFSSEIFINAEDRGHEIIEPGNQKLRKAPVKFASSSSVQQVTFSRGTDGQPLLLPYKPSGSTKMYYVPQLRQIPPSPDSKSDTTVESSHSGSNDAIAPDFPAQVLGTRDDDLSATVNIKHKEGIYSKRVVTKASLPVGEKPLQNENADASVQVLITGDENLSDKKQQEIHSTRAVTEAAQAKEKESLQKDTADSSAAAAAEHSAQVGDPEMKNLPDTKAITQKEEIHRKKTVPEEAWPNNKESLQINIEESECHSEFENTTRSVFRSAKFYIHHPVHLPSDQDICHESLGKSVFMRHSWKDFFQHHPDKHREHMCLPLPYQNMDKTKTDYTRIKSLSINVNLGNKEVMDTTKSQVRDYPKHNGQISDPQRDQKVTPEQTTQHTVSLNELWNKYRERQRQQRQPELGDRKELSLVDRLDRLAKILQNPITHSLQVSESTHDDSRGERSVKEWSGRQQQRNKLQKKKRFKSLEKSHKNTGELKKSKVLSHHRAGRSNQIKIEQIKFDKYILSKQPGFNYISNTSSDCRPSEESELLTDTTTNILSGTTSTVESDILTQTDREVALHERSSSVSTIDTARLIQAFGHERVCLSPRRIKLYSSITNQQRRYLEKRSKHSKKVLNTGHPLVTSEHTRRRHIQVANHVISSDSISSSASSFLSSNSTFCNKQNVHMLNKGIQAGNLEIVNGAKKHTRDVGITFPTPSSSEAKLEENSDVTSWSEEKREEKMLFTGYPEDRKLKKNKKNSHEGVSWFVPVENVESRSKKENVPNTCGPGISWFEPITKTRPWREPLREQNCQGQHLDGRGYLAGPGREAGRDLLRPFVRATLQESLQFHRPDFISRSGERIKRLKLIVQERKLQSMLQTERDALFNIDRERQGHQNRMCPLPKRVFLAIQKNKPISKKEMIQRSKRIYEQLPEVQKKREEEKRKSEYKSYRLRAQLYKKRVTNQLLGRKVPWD

2-NBDG absorption in mature adipocytes in absence of INS (times (vs control)): 3.5
Substance: min-αPKC-FLAG (ALMS1-interacting domain of human PKCα with N-terminal FLAG tag) (from UniProt P05696 336-672)
